Assay results reported in the supplement of paper PMC9170038.

System: MS2 coat protein
Test: apparent KD of MS2 coat protein; designed switch direction (-1 OFF switch, 1 ON switch): -1; higher = weaker reporter binding
In short: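 Normalised cluster fluorescence was curve-fitted, and each design's median over clusters is its apparent KD. Before this, SNAP-549-labelled MS2 coat protein was titrated from 0.7 or 1.5 nM, doubling to 3 µM, over RNA switches transcribed on Illumina chips by stalled E. coli RNA polymerase. Titrations had no input, 200 uM small-molecule ligand, or an oligonucleotide input, and steps lasted 0.8–1.5 h (lowest) to 10–20 min (highest).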

[1] = input ligand: microRNA oligo, concentration not stated
[2] = Eterna round: R95, input ligand: FMN 200 uM
[3] = Eterna round: R95, input ligand: microRNA oligo, concentration not stated
[4] = Eterna round: R95, input ligand: none

Sequence | apparent KD of MS2 coat protein (input ligand: FMN 200 uM) | apparent KD of MS2 coat protein (input ligand: none) | apparent KD of MS2 coat protein [1] | apparent KD of MS2 coat protein [2] | apparent KD of MS2 coat protein [3] | apparent KD of MS2 coat protein [4]
UAAAGCGUAGGAUAUACAUUCAUGAGCACCACCCGGUGCACACAUGAGGAUCACCCAUGUAGAAGGAUGCUACG [Eternabot (Original) Solution 49] (Eterna round: R97, puzzle: Exclusion 2) | 14.6 nM | 17.6 nM | – | – | – | –
UAAAGUAUAUAGGAUAUCUAGCUGGAAACAGCUAGAGAAGGAUGUACAUGAGGAUCACCCAUGUAAAUCGUGAA [Ex6/13-A1] (Eterna round: R97, puzzle: Exclusion 6) | 16.2 nM | 13 nM | – | – | – | –
UAAAUAAAUGUAGGAUAUCUGCACGAUUAGUGCAGAGAAGGACAUGAGGAUCACCCAUGUAUAGUAGCUUCGGCUACAAAUAAU [ENG1-C1] (Eterna round: R96, puzzle: Exclusion NG 1) | 89.9 nM | 71.2 nM | 51.9 nM | – | – | –
UAAAUGUCAGGAUAUUGUUAAUUUAGUUGUUUGUAUUAGUUCGAGAAGGGACAUGAGGAUCACCCAUGUUAAAU [Ex4 #53] (Eterna round: R97, puzzle: Exclusion 4) | 45.9 nM | 30.4 nM | – | – | – | –
UAACAAGCUUAAAGAUCCCACAUGAGGAUCACCCAUGUGCUCGUCUUAUAACGUACUGUGACGAAAGUCACGGUACG [JL TOV1 3.13] (Eterna round: R97, puzzle: Sensor, turn-off variant 1) | 29.2 nM | 26.3 nM | – | – | – | –
UAACUUAUUGUAAGGAUAUCGGUCCGAAAGGACAACGAGAAGGUACAUGAGGAUCACCCAUGUGAAAUAAGAAU [Mod of Zala 21 - Jieux - Brourd's Mod of Exclusion 4] (Eterna round: R97, puzzle: Brourd's mod of Exclusion 4) | 261 nM | 29.4 nM | – | – | – | –
UAAGGGUGCGUAGGAUAUCGCGGCCGAAUAAAGCGAGAAGGACGCCCUAAUGGGUCGUCCAACAUGAGGAUCACCCAUGUAUAC [Uslaarus] (Eterna round: R96, puzzle: Exclusion NG 1) | 55.4 nM | 41.5 nM | 31.2 nM | – | – | –
UAAUAAAGGGUAGGAUAUGCCGAACAAACACGAGCAGAAGGACCAAAACACUACUUGAGGAUCACCCAAGUGUCCUUCCGUGGU [Mutated MS2 EX1.6] (Eterna round: R96, puzzle: Exclusion NG 1) | 52.4 nM | 17.2 nM | 13.2 nM | – | – | –
UAAUAACAAGCGAGAUCCUACAUGAGGAUCACCCAUGUGCUCGUCUUAUAAGGUACUGUGACGAUAGUCACGGUACC [Mat - Sensor, turn-off var - Eli Mod - D96] (Eterna round: R97, puzzle: Sensor, turn-off variant 1) | 17.8 nM | 18.2 nM | – | – | – | –
UAAUACAAGCAAAGAUCCUACAUGAGGAUCACCCAUGUGCUCGUCUUGUAAAGUACUAUCACGAAAGUGAUAGUACA [Mat - Sensor v3 - turn-off var 1 - Eli Mod - D77] (puzzle: Sensor v3, turn-off variant 1) | – | – | – | 41.2 nM | 17.1 nM | 114 nM
UAAUGCAGGUAAAGAUUCUACAUGAGGAUCACCCAUGUGCUCGUCUUAUAAAGUACUAUCACGAAAGUGAUAGUACA [Mat - Sensor v3 - turn-off var 1 - Eli Mod - D101] (puzzle: Sensor v3, turn-off variant 1) | – | – | – | 27.6 nM | 220 nM | 24.8 nM
UAAUGGACAGGAUAUACAUGAGGAUCACCCAUGUCGGCCGGUCCUGUUCUAAGAGCGAGUAGAAGGGUCACGUU [Eternabot (L1) Solution 4] (Eterna round: R97, puzzle: Exclusion 3) | 11.6 nM | 11.9 nM | – | – | – | –
UAAUUGUGAGGAUAUUCGUUUAACACGGAGACGUGUUGAACGGAGAAGGCACAUGAGGAUCACCCAUGUUCCUU [Mat - Exclusion 4 - JL Mod - D17] (Eterna round: R97, puzzle: Exclusion 4) | 89.9 nM | 19.3 nM | – | – | – | –
UAAUUUUUAGUAAGGAUAUCGGUCCCAAGGGACAACGAGAAGGUACAUGAGGAUCACCCAUGUGACGAAAGAAU [Mod of Zala 9 - Jieux - Brourd's Mod of Exclusion 4] (Eterna round: R97, puzzle: Brourd's mod of Exclusion 4) | 35.6 nM | 15.5 nM | – | – | – | –
UACAGUCAUCCUUGUUGUUACAUGAGGAUCACCCAUGUUAGUAUAAUUAAGUUAUGUAAGUUUGUUGUUCGUUUUAU [JR_STOV1_v2_Sub076] (Eterna round: R97, puzzle: Sensor, turn-off variant 1) | 94.2 nM | 101 nM | – | – | – | –
UACAUGAGGAUCACCCAUGUUUUGUCGUGUAUGGUAUUUAUCUAGGAUAUCAAUGUAUUAAUUUAUGAGAAGGAGAAUAUUAAU [JMF's solution 44] (Eterna round: R96, puzzle: Exclusion NG 3) | 42 nM | 43.2 nM | 27.3 nM | – | – | –

Sequence | apparent KD of MS2 coat protein (input ligand: FMN 200 uM) | apparent KD of MS2 coat protein (input ligand: none) | apparent KD of MS2 coat protein [1] | apparent KD of MS2 coat protein [2] | apparent KD of MS2 coat protein [3] | apparent KD of MS2 coat protein [4]
UACAUGAGGAUCACCCAUGUUUUGUCGUGUAUGGUAUUUAUCUAGGAUAUCAAUUGAUUUAGUUAUGAGAAGGAGAAUAUUAAU [JMF's solution 62] (Eterna round: R96, puzzle: Exclusion NG 3) | 27.2 nM | 30.1 nM | 20.6 nM | – | – | –
UACAUGAGGAUCACCCAUGUUUUGUCGUGUAUGGUAUUUAUCUAGGAUAUCAAUUUGAUUAUUUAUGAGAAGGAGAAUAUUAAU [JMF's solution 65] (Eterna round: R96, puzzle: Exclusion NG 3) | 39.1 nM | 39.1 nM | 28.8 nM | – | – | –
UACAUGAGGAUCACCCAUGUUUUGUCGUGUAUGGUAUUUAUCUAGGAUAUCACGUUAUUUAUUUAUGAGAAGGAGAAUAUUAAU [JMF's solution 26] (Eterna round: R96, puzzle: Exclusion NG 3) | 38.9 nM | 39 nM | 17.1 nM | – | – | –
UACAUGAGGAUCACCCAUGUUUUGUCGUGUAUGGUAUUUAUCUAGGAUAUCAUUCUAUUUAUUUAUGAGAAGGAGAAUAUUAAU [JMF's solution 98] (Eterna round: R96, puzzle: Exclusion NG 3) | 33.4 nM | 29.7 nM | 23.5 nM | – | – | –
UACAUGAGGAUCACCCAUGUUUUGUCGUGUAUGGUAUUUAUCUAGGAUAUCAUUUUAAUUAGUUAUGAGAAGGAGAAUAUUAAU [JMF's solution 87] (Eterna round: R96, puzzle: Exclusion NG 3) | 33.7 nM | 32.5 nM | 24.4 nM | – | – | –
UACAUGAGGAUCACCCAUGUUUUGUCGUGUAUGGUAUUUAUCUAGGAUAUCAUUUUAUCUAGUUAUGAGAAGGAGAAUAUUAAU [JMF's solution 89] (Eterna round: R96, puzzle: Exclusion NG 3) | – | – | 26.6 nM | – | – | –
UACGAACUAGGAUAUGCAAUGGGCUCGCUUUCCUUCGAUAAACUUGAGGAUCACCCAAGUAGAAGGAGUUUGUA [Mod 38 - Jieux - Exclusion 2] (Eterna round: R97, puzzle: Exclusion 2) | 40.8 nM | 16.6 nM | – | – | – | –
UACGGUCCUAACAUGAGGAUCACCCAUGUAACAAAAGAAACCUAGGAUAUCCGCGCCGGAAGGAAGGAGAAGGAGGGCGUGGCA [Ededti] (Eterna round: R96, puzzle: Exclusion NG 3) | 50.7 nM | 51.8 nM | 34.3 nM | – | – | –
UAGCAGAGAGGAUAUACAUUCAUCACCCGCGCAACAAGCGCACAUGAGGAUCACCCAUGUAGAAGGCUCGUGCC [EX2 C.20] (Eterna round: R97, puzzle: Exclusion 2) | 53.6 nM | 31.7 nM | – | – | – | –
UAGCUUUAUGUUAGGAUAUUCGCGCAUAUACUGCCGAAGAAGGAACAUGAGGAUCACCCAUGUACACGCCUAUG [Eternabot (L1) Solution 60] (Eterna round: R97, puzzle: Brourd's mod of Exclusion 4) | 81.1 nM | 20.9 nM | – | – | – | –
UAGGAGUCAGGAUAUGCGAGAGAUUGAAGUAUGGGAAGUGAGCAGAAGGGACAUGAGGAUCACCCAUGUGAGAA [JR_Exclu4_Sub094] (puzzle: Exclusion 4) | – | – | – | 52.1 nM | 46.8 nM | 45 nM
UAUAAAACAUAGGAUAUCGAAUAUAUCAUUUAACGAGAAGGAUGAACAUGAGGAUCACCCAUGUGGUAUCAUGG [Mat - Exclusion 6 - JL Mod - D8] (puzzle: Exclusion 6) | – | – | – | 286 nM | 262 nM | 172 nM
UAUAACAGAGGAUAUGCGAAUAAAUAAAACUUUUUUUUUUAACAUGAGGAUCACCCAUGUAGAAGGCUGAUAUU [Ex2 #22] (Eterna round: R97, puzzle: Exclusion 2) | 28.5 nM | 51.6 nM | – | – | – | –
UAUACACAUGAGGAUCACCCAUGUGAGGAUAUGUAAAAAAAACCGACGGUUUUUUUUUACAGAAGGCACAUAUA [JR_Exclusion1_Sub026] (puzzle: Exclusion 1) | – | – | – | – | 52.5 nM | –
UAUACUAGAUAGGAUAUACUAUAUAUAUUUUUCGUAGAAGGAUCUACAUGAGGAUCACCCAUGUUAACAGCAGU [JR_E6_Sub007] (puzzle: Exclusion 6) | – | – | – | 45 nM | 42.9 nM | 41.5 nM
UAUAUAUAGUAAGGAUAUGUAAUCAUUUUAUAAACAGAAGGUACUGACAUGAGGAUCACCCAUGUUUUAGUGUGGGCAUGUAGA [JMF's solution 31] (Eterna round: R96, puzzle: Exclusion NG 1) | – | – | 64.6 nM | – | – | –
